In PMC9902533, “Direct digital sensing of protein biomarkers in solution”:

How the values were obtained:
CD63 on exosomes = CD63 on exosomes (human? (MDA-MB-231 breast cancer cell …, UniProt P08962 2-238)); assay: microchip free-flow electrophoresis, single-particle counting (DigitISA); 5, 50, 100 nM aptamer; isolated exosomes; 10 mM HEPES pH 7.4, 0.05% Tween-20, room temperature (IgE; fibrils and exosomes same buffer); FUS: 50 mM Tris-HCl pH 7.4, 25 mM KCl, 0.02% Tween-20, on-chip desalting; oligomers: from PBS pH 7.4, on-chip desalting; details: protein: native; tags: none; label: fluorescent label, not specified
Chain of CD63 on exosomes (human? (P08962 2-238): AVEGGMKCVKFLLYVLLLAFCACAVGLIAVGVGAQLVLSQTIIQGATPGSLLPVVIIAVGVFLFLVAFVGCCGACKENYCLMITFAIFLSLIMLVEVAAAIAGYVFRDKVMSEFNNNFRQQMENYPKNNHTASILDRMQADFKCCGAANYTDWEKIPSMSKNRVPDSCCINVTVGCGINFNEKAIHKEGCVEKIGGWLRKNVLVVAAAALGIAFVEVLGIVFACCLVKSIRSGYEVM

[1] = biological target: alpha-synuclein oligomers (human, UniProt P37840 1-140); assay: microchip free-flow electrophoresis, single-molecule counting (DigitISA); 100 nM aptamer; complex 32.7 pM; 10 mM HEPES pH 7.4, 0.05% Tween-20, room temperature (IgE; fibrils and exosomes same buffer); FUS: 50 mM Tris-HCl pH 7.4, 25 mM KCl, 0.02% Tween-20, on-chip des
FUS-SNAP = FUS-SNAP (UniProt P35637 1-526); assay: microchip free-flow electrophoresis (DigitISA); 700 nM aptamer, 2 uM FUS, condensates present; monomer-bound vs free; 10 mM HEPES pH 7.4, 0.05% Tween-20, room temperature (IgE; fibrils and exosomes same buffer); FUS: 50 mM Tris-HCl pH 7.4, 25 mM KCl, 0.02% Tween-20, on-chip desalting; oligomers: from PBS pH 7.4, on-chip desalting; details: protein: recombinant; tags: SNAP; label: 3'-Atto488
Chain of FUS-SNAP (P35637 whole entry): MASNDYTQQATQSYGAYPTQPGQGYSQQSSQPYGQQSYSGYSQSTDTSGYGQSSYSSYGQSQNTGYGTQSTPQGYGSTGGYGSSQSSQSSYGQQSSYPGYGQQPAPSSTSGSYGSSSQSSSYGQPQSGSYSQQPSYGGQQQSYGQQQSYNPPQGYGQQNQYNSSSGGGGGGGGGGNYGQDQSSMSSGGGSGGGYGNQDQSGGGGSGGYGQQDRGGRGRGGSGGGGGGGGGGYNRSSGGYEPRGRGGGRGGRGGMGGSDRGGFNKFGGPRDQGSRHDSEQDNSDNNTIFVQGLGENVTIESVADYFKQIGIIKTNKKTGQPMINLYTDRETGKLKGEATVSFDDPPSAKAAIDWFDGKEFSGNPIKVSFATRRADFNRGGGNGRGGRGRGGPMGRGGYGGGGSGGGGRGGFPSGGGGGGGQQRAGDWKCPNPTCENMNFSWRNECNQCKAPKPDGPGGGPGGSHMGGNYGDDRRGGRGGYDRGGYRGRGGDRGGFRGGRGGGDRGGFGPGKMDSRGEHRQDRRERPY

B1: CD63 aptamer (structured_DNA)
DNA: CACCCCACCTCGCTCCCGTGACACTAATGCTA
binding result (CD63 on exosomes): binds

B2: T-SO606 aptamer (structured_DNA)
DNA: TTTTGGGTCGGCTGTCCGTGGGTGGGGA
binding result [1]: binds

B3: GGUG RNA aptamer (ssRNA)
RNA: UUGUAUUUUGAGCUAGUUUGGUGAC
Kd (FUS-SNAP): 280 ± 20 nM
